Laboratory results: the supplement of paper PMC7877785
± gives the uncertainty stated by the source.

Experiment: self-splicing fitness, log relative to wild type (ln ratio); higher = more splicing; Tetrahymena group I intron in knt gene, E. coli kanamycin selection, DiMSum; sequences stand for … in CUCUCU…GGAGGGAAAAGUUAUCAGGCAUGCACCUGGUAGCUAGUCUUUAAACCAAUAGAUUGCAUCGGUUUAAAAGGCAAGACCGUCAAAUUGCGGGAAAGGGGUCAACAGCCGUUCAGUACCAAGUCUCAGGGGAAACUUUGAGAUGGCCUUGCAAAGGGUAUGGUAAUAAGCUGACGGACAUGGUCCUAACCACGCAGCCAAGUCCUAAGUCAACAGAUCUUCUGUUGAUAUGGAUGCAGUUCACAGACUAAAUGUCGGUCGGGGAAGAUGUAUUCUUCUCAUAAGAUAUAGUCGGACCUCUCCUUAAUGGGAGCUAGCGGAUGAAGUGAUGCAACACUGGAGCCGCUGGGAACUAAUUUGUAUGCGAAAGUAUAUUGAUUAGUUUUGGAGUACUCGUGGUCG
Procedure, shortened: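 DiMSum derived fitness as the error-weighted combination of fold changes across replicates, kanamycin versus no kanamycin, normalised to wild type. E. coli BL21(DE3) held the library, which randomised all eight P1ex-region intron nucleotides within the knt kanamycin-resistance gene on pET-22b(+). Six replicate transformations grew overnight at 37°C or 30°C on LB agar with or without 25 μg/mL kanamycin, also containing 100 μg/mL carbenicillin, 50 μM IPTG and 0.2% rhamnose, and pooled colonies were amplicon-sequenced on an Illumina HiSeq 2500.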

Sequence | self-splicing fitness (ln) (30 °C) | self-splicing fitness (ln) (37 °C)
UGAAAGCAAUAUUACGGGUA | -1.01 ± 0.1 | -0.387 ± 0.097
AGAUAGCAAUAUUACGAGCU | -0.432 ± 0.13 | -1.02 ± 0.13
ACCUAGCAAUAUUACGUCCC | -1.37 ± 0.26 | 
CUUGAGCAAUAUUACGCUAU | -3.44 ± 0.34 | -2.58 ± 0.49
AAUUAGCAAUAUUACGUCCC | -0.346 ± 0.41 | -0.0336 ± 0.49
CUUAAGCAAUAUUACGUCCU | -3.41 ± 0.21 | -2.43 ± 0.19
UUCAAGCAAUAUUACGCGCG | -1.39 ± 0.082 | -0.634 ± 0.13
GGCAAGCAAUAUUACGCUGU | -4.24 ± 0.23 | -2.05 ± 0.2
AUCGAGCAAUAUUACGGCUG | -1.8 ± 0.24 | -0.221 ± 0.35
CGGCAGCAAUAUUACGGUAA | -2.56 ± 0.13 | -2.33 ± 0.13
ACCCAGCAAUAUUACGAAGG | -1.71 ± 0.071 | -0.892 ± 0.1
CGUGAGCAAUAUUACGAAGU | -3.6 ± 0.21 | -2.41 ± 0.19
GAUAAGCAAUAUUACGGCAG | -3.5 ± 0.32 | -2.51 ± 0.33
CGGCAGCAAUAUUACGUCCA | -0.34 ± 0.1 | -0.521 ± 0.14
GACAAGCAAUAUUACGAGAG | -3.18 ± 0.17 | -2.96 ± 0.21
UUGUAGCAAUAUUACGCUGA | -1.09 ± 0.18 | -1.05 ± 0.2
CGACAGCAAUAUUACGCGUG | -1.55 ± 0.067 | -1.14 ± 0.095
UGCAAGCAAUAUUACGUGCA | -3.02 ± 0.21 | -3.18 ± 0.35
GGGCAGCAAUAUUACGCCCG | -2.33 ± 0.23 | 
AUGUAGCAAUAUUACGACGU | -0.432 ± 0.087 | 0.442 ± 0.095
AAGUAGCAAUAUUACGUUGG | -2.96 ± 0.18 | -2.2 ± 0.23
UAUUAGCAAUAUUACGCCGU |  | -1.63 ± 0.33

Sequence | self-splicing fitness (ln) (30 °C) | self-splicing fitness (ln) (37 °C)
GCCAAGCAAUAUUACGCGUA | -0.871 ± 0.089 | -0.13 ± 0.089
UAAUAGCAAUAUUACGUUAA | -3.02 ± 0.23 | -2.53 ± 0.19
GUUUAGCAAUAUUACGAUCU | -0.663 ± 0.12 | -0.195 ± 0.18
UUCCAGCAAUAUUACGUAGC | -3.54 ± 0.17 | -1.51 ± 0.2
AUAUAGCAAUAUUACGCGAC | -2.73 ± 0.22 | -2.32 ± 0.21
AAGCAGCAAUAUUACGUCCU | -0.341 ± 0.081 | -0.442 ± 0.094
AUAAAGCAAUAUUACGAAGA | -2.47 ± 0.15 | -1.17 ± 0.18
ACAGAGCAAUAUUACGAUCG | -2.71 ± 0.18 | -1.88 ± 0.23
AGUUAGCAAUAUUACGCGCU | -3.13 ± 0.21 | -2.4 ± 0.31
CGUAAGCAAUAUUACGUGGG | -3.43 ± 0.16 | -2.67 ± 0.15
UGCCAGCAAUAUUACGAUUA | -0.904 ± 0.075 | -0.743 ± 0.089
CUCUAGCAAUAUUACGACAG | -1.95 ± 0.14 | -0.569 ± 0.13
UAGAAGCAAUAUUACGGACC | -2 ± 0.4 | -0.433 ± 0.34
CCUCAGCAAUAUUACGUAUA | -3.44 ± 0.19 | -3.16 ± 0.32
GGGUAGCAAUAUUACGUGUC | -2.16 ± 0.18 | -0.684 ± 0.15
AUUUAGCAAUAUUACGAGCC | -1.74 ± 0.46 | 
CGCAAGCAAUAUUACGACAC | -2.89 ± 0.29 | -0.474 ± 0.22
GAGUAGCAAUAUUACGUCCU | 0.0223 ± 0.087 | 0.18 ± 0.15
AUUUAGCAAUAUUACGUUAG | -3.03 ± 0.47 | -2.61 ± 0.25
CGACAGCAAUAUUACGGAGU | -3.91 ± 0.2 | -2.53 ± 0.14
ACCGAGCAAUAUUACGGGGA | -1.87 ± 0.1 | -1.65 ± 0.1
